Here are results for 97 variants from the supplement of paper PMC10567573.

B1: ZBED1 (parent)
chain: EQVFSLGDGVSGGFFGIRDSSFL
B2: CDKL4 (parent)
chain: AVKKFVESEDDPVVKKIALREIRM
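Note: lentivirally expressed fusions sorted by FACS into six bins by GFP to DsRed ratio, PSI derived from sequencing read proportions per bin multiplied by bin number.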

The first data set covers variants of B1. As to the kind of experiment: protein stability index of a GFP-peptide fusion (GPS, HEK-293T) (PSI 1-6); higher = more stable. The note with it: c terminus: native.
Turning to EQVFSLGDGVSGGFFGIRDSSPL [F22P], the protein stability index was determined as 3.43.
In the case of EQVFSLGDGVSGGFFGIRDSSGL [F22G], the protein stability index amounted to 4.14.
For the variant EQVFSLGDGVSGGFFGIRDSSKL [F22K], the protein stability index is 2.39.
As to EQVFSLGDGVSGGFFGIRDSSCL [F22C], the protein stability index was 3.39.
Consider EQVFSLGDGVSGGFFGIRDSSLL [F22L], for which the protein stability index turned out to be 3.41.
Consider EQVFSLGDGVSGGFFGIRDSSRL [F22R], for which the protein stability index worked out at 3.61.
Consider EQVFSLGDGVSGGFFGIRDSSML [F22M], for which the protein stability index amounted to 3.49.
Still for that read-out and setting: the figure for EQVFSLGDGVSGGFFGIRDSSYL [F22Y] is 3.33; for EQVFSLGDGVSGGFFGIRDSSDL [F22D] it is 4.06; for EQVFSLGDGVSGGFFGIRDSSVL [F22V] it is 3.35.
Still for that read-out and setting: the figure for EQVFSLGDGVSGGFFGIRDSSIL [F22I] is 3.04; for EQVFSLGDGVSGGFFGIRDSSTL [F22T] it is 4.07; for EQVFSLGDGVSGGFFGIRDSSNL [F22N] it is 4.22.
Still for that read-out and setting: the figure for EQVFSLGDGVSGGFFGIRDSSQL [F22Q] is 4.24; for EQVFSLGDGVSGGFFGIRDSSEL [F22E] it is 4.08; for EQVFSLGDGVSGGFFGIRDSSHL [F22H] it is 4.5.
Take EQVFSLGDGVSGGFFGIRDSSWL [F22W]: the protein stability index was 3.73.
The same measure, in the same setting: the figure for EQVFSLGDGVSGGFFGIRDSSAL [F22A] is 4.15; for EQVFSLGDGVSGGFFGIRDSSSL [F22S] it is 3.79; for EQVFSLGDGVSGGFFGIRDSNFL [S21N] it is 3.62.
As to EQVFSLGDGVSGGFFGIRDSRFL [S21R], the protein stability index was 3.61.
For the variant EQVFSLGDGVSGGFFGIRDSDFL [S21D], the protein stability index worked out at 4.08.
EQVFSLGDGVSGGFFGIRDSHFL [S21H]: the protein stability index was 3.46.
Regarding EQVFSLGDGVSGGFFGIRDSKFL [S21K], the protein stability index worked out at 4.02.
On the same count and under the same terms, in the case of EQVFSLGDGVSGGFFGIRDSWFL [S21W] it was 2.59; in that of EQVFSLGDGVSGGFFGIRDSIFL [S21I], 2.25; in that of EQVFSLGDGVSGGFFGIRDSQFL [S21Q], 3.48.
Same read-out and setting: in the case of EQVFSLGDGVSGGFFGIRDSYFL [S21Y] it was 2.66; in that of EQVFSLGDGVSGGFFGIRDSFFL [S21F], 2.61.
On the same count and under the same terms, the figure for EQVFSLGDGVSGGFFGIRDSEFL [S21E] is 3.67; for EQVFSLGDGVSGGFFGIRDSVFL [S21V] it is 1.74.
As to EQVFSLGDGVSGGFFGIRDSAFL [S21A], the protein stability index came out at 3.
On the same count and under the same terms, the figure for EQVFSLGDGVSGGFFGIRDSGFL [S21G] is 3.84; for EQVFSLGDGVSGGFFGIRDSLFL [S21L] it is 2.5.
For EQVFSLGDGVSGGFFGIRDSPFL [S21P], the protein stability index worked out at 3.4.
On the same count and under the same terms, the figure for EQVFSLGDGVSGGFFGIRDSCFL [S21C] is 2.77; for EQVFSLGDGVSGGFFGIRDSTFL [S21T] it is 3.33.
On to EQVFSLGDGVSGGFFGIRDSMFL [S21M], for which the protein stability index amounted to 2.54.
The same measure, in the same setting: in the case of EQVFSLGDGVSGGFFGIRDSSFR [L23R] it was 3.35; in that of EQVFSLGDGVSGGFFGIRDSSFY [L23Y], 2.61.
The same measure, in the same setting: in the case of EQVFSLGDGVSGGFFGIRDSSFM [L23M] it was 3.67; in that of EQVFSLGDGVSGGFFGIRDSSFN [L23N], 3.94.
As to EQVFSLGDGVSGGFFGIRDSSFS [L23S], the protein stability index is 3.25.
As for EQVFSLGDGVSGGFFGIRDSSFF [L23F], the protein stability index was 2.63.
Still for that read-out and setting: the figure for EQVFSLGDGVSGGFFGIRDSSFC [L23C] is 3.34; for EQVFSLGDGVSGGFFGIRDSSFH [L23H] it is 3.9.
On the same count and under the same terms, in the case of EQVFSLGDGVSGGFFGIRDSSFP [L23P] it was 3.92; in that of EQVFSLGDGVSGGFFGIRDSSFA [L23A], 2.42; in that of EQVFSLGDGVSGGFFGIRDSSFV [L23V], 3.19.
Same read-out and setting: the figure for EQVFSLGDGVSGGFFGIRDSSFK [L23K] is 4.35.
For the variant EQVFSLGDGVSGGFFGIRDSSFW [L23W], the protein stability index was determined as 2.66.
On the same count and under the same terms, the figure for EQVFSLGDGVSGGFFGIRDSSFT [L23T] is 3.33; for EQVFSLGDGVSGGFFGIRDSSFD [L23D] it is 3.96; for EQVFSLGDGVSGGFFGIRDSSFI [L23I] it is 2.99.
The same measure, in the same setting: the figure for EQVFSLGDGVSGGFFGIRDSSFE [L23E] is 4.54; for EQVFSLGDGVSGGFFGIRDSSFQ [L23Q] it is 3.98; for EQVFSLGDGVSGGFFGIRDSSFG [L23G] it is 1.56.
On the same count and under the same terms, in the case of EQVFSLGDGVSGGFFGIRDTSFL [S20T] it was 3.22.
Regarding EQVFSLGDGVSGGFFGIRDGSFL [S20G], the protein stability index was 3.22.
Regarding EQVFSLGDGVSGGFFGIRDDSFL [S20D], the protein stability index turned out to be 3.71.
Regarding EQVFSLGDGVSGGFFGIRDQSFL [S20Q], the protein stability index is 3.7.
On to EQVFSLGDGVSGGFFGIRDISFL [S20I], for which the protein stability index was 2.42.
The same measure, in the same setting: the figure for EQVFSLGDGVSGGFFGIRDESFL [S20E] is 3.91; for EQVFSLGDGVSGGFFGIRDLSFL [S20L] it is 2.5.
With EQVFSLGDGVSGGFFGIRDMSFL [S20M], the protein stability index was 2.49.
For the variant EQVFSLGDGVSGGFFGIRDKSFL [S20K], the protein stability index was determined as 3.53.
On the same count and under the same terms, the figure for EQVFSLGDGVSGGFFGIRDRSFL [S20R] is 3.21; for EQVFSLGDGVSGGFFGIRDPSFL [S20P] it is 3.73; for EQVFSLGDGVSGGFFGIRDCSFL [S20C] it is 1.96.
On the same count and under the same terms, in the case of EQVFSLGDGVSGGFFGIRDWSFL [S20W] it was 2.35.
For the variant EQVFSLGDGVSGGFFGIRDFSFL [S20F], the protein stability index is 2.39.
EQVFSLGDGVSGGFFGIRDHSFL [S20H]: the protein stability index amounted to 2.76.
Turning to EQVFSLGDGVSGGFFGIRDASFL [S20A], the protein stability index was 3.1.
Still for that read-out and setting: the figure for EQVFSLGDGVSGGFFGIRDYSFL [S20Y] is 2.96; for EQVFSLGDGVSGGFFGIRDVSFL [S20V] it is 2.63; for EQVFSLGDGVSGGFFGIRDNSFL [S20N] it is 3.7.

Variants of B2 are the subject of a further data set. The data set is described as above. As to conditions: c terminus: a fixed tail appended.
For the variant AVKKFVESEDDPVVKKIALREIAM [R23A], the protein stability index is 2.03.
On the same count and under the same terms, in the case of AVKKFVESEDDPVVKKIALREIHM [R23H] it was 3.14; in that of AVGKFVESEDDPVVKKIALREIRM [K3G], 2.74; in that of AVMKFVESEDDPVVKKIALREIRM [K3M], 2.28.
With AVKKFVESEDDPVGKKIALREIRM [V14G], the protein stability index is 2.97.
Still for that read-out and setting: the figure for AVKKFVESEDDPVMKKIALREIRM [V14M] is 2.69.
With AVKKFVESEDDPVCKKIALREIRM [V14C], the protein stability index was 3.74.
Still for that read-out and setting: the figure for AVKKFVESEDDPVVMKIALREIRM [K15M] is 1.87; for AVKKFVESEDDPVVPKIALREIRM [K15P] it is 3.46; for LVKKFVESEDDPVVKKIALREIRM [A1L] it is 1.99.
Still for that read-out and setting: the figure for AVKKFVESEDDPVVKKIALREIRR [M24R] is 3.23; for AVKKFVESEFDPVVKKIALREIRM [D10F] it is 1.77; for AVKKFVESEDDPVVKKIALRTIRM [E21T] it is 2.4.
As for AVKKFVENEDDPVVKKIALREIRM [S8N], the protein stability index is 3.32.
Same read-out and setting: in the case of AVKKFVEREDDPVVKKIALREIRM [S8R] it was 2.43; in that of AVKKFVESEDDTVVKKIALREIRM [P12T], 2.76.
On the same count and under the same terms, the figure for AVKKFVESEDDLVVKKIALREIRM [P12L] is 2.55; for AVKKFVESEDDPVVKKIAPREIRM [L19P] it is 4.24.
In the case of AVKKFVESEDDPVVKKIASREIRM [L19S], the protein stability index amounted to 4.41.
On the same count and under the same terms, the figure for AVKKFVESEDDPLVKKIALREIRM [V13L] is 2.93.
As to AVKKFVESEDDPFVKKIALREIRM [V13F], the protein stability index was found to be 2.5.
